Results on 20 sequences are retold here after a protein production outcome set (Wang et al. 2014).
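Note: failed if final PepcDB status was selected cloned or expressed and not failed if soluble or beyond.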

A short description of the data set: label from the status in PepcDB records.
Turning to “MTDPLQRPRRKDPLRRTTLGHVPPRLRSRAAMEMATHAAQGRFVLQTCESCDRATYPPRDRCPNCWGELVWREQDAGGQVAAETTIRHSTDTYFRNHMPWRIGTVRLDAGPTAIVHLHGEAGVGDRVNMVLKLDRGGNPALFAMPRGDVPNMQDDPQFRSFTADPKHRRVLVTDGRTDTGQAIARALLDAGAAKVFVGDCAPLMRFAGKQQLAALDGAELVPLDVTDTHSVGNLAAQLGGRIDIVINTAGQVREGGVAFGAKLSDLQAGLDTGVVGLMRLAQAFGPALGARSDDGVNSAAAFLDVVPVSGLSGQSGYSGTAASAAARLSLLSGFRGEMQKAGIRVMSVLTGPVDDAWHQRLPQPKTAPSHLARTVVAALRDGQEISCAGDVAKDLFARWRADPLLTMREENR”, the protein production entry is “failed”.

Take “MDVTVSTDDGYRVNNLGLMSSRQNYMIFGGFVAIAGIIIVLVGEKFKPSANSVKCPYCAELISAEAVKCKHCGSDVTPSKTIVSADDAEASDRLADVNVKLIAGVVLAVFAAIIGAIIFHRQ”: the protein production result is reported as “failed”.

Consider “MSLKSIEVVAAVIRLGEKYLCVQRGQTKFSYTSFRYEFPGGKVEEGESLQEALQREIMEEMDYVIEVGEKLLTVHHTYPDFEITMHAFLCHPVGQRYVLKEHIAAQWLSTREMAILDWAEADKPIVRKISEQEGHHHHHH”, for which the protein production entry is on record as “not failed”.

As to “IEAENHKVTDKIKNAQPFLVDVVPAKSVIPELNDDAQKTLLHAGPPIQWSEMTGPMKGACIGAALFERWADNEEDALKIFEAGEVRFIPCHHVKAVGPMGGITSGNMPVFVVENRLEGNEAYCILNEGIGKVLRFGAYSQEVVDRLDWIKDVLGPTIAKALKLSEEGLNLNVLIARSITMGDEFHQRNIAASLNFLKELSPLIIKTDIPEDQKYEVIKFLADTDQFFLNVMMATGKAIVDGARKDTNGTIVTTMTRNGVNFGVRIAETGDQWHTAPVNTPKGLYFTGFSEEDGNPDVGDSAITETVGVGAMAMVAAPGVTRFVGAGGFEDALATSNEMAKICEGNNPTFSIPTWDFQGTCLGIDIRKVVELGITPIINTGIAHKNAGVGQIGAGTVRAPLGCFEKALEAYAEKLGITVE”, the protein production entry is “failed”.

As for “YDLLCRERDNFRILVAITNAVLSRLDIDELVSEVAKEIHHYFNIDAISIVLRSHRKNKLNIYSTHYLDEHHPAHEQSEVDEAGTLTERVFKSKEMLLINLNERDPLAPYERMLFDTWGNQIQTLCLLPLMSGKTMLGVLKLAQCEEKVFTTANLKLLRQIAERVAIAVDNALAYQEIHRLKER”, the protein production entry is listed as “failed”.

Regarding “FYTPKAVVQLVVELIDPRPGHSVYDPTCGSGGMLVESAHHVSGLPDGTLMGKPNVLLYGQEKNLGTWAIAKLNLYLHNMHASIERGDTLVEPKHLDGDYLKTFDRVIANPPFSAKSWWTPLELSNENEQENGKKVKAPNYKQVSDPYGRLVYGVPPRGYADLAFAQHMLASLKADGRMGVILPHGVLFRSGEEGKIREGLLFGTGAASGNQPGDVIEAIVGLPSALFYNTGIPACVLILNKQKPSALKDKVIIIDGSRDYLEGKAQNSLHAEDILRIVSTH”, the protein production result was “failed”.

Consider “MMQPKFCTRCLAMSTRPRITFNRDGVCNACLWQEQKSSVDWDDRNSKLLSLLDSHRSKNNSYDVIVPVSGGKDGSYVAYNLKHKFNMNPLCVTVTPPLETQLGAQNLKNFIKSGYDQVSININPETIRNINRAGFVHHGFPYFGWLVAIVTSVTRVAQQMNVPLIMYGEDAEMEYGGSSEKANLTTFGIEYMKRVGFEAGYEKVFSTLDLSDSDLYWLTFAEQDKTQVLFSHWSYFENWDPYRNYLVAKKQCGLQEADDTNFGTFTNFAQNDQYLYVLHTYLMYLKFGFGRSNQDACIEIRRGAMKREQAINLVRLYDGQFPDEFLQMYLEYYQMSEAEFNATLARWVNKDLFELKDGLWSPTFTIQ”, for which the protein production entry was “failed”.

Consider “MDRIPFGIRQLDSIINGGAPAGSVVLLSGEAGAGSREFMHTSALINGLEQVDTELHDLYYGDRSPDAVAPDEVHYISFTTNESQLVSEMRLAMDDDVVDKGSRAVEFHDLSERYFHISPVPREWYASETASITDLRARHEREDLLGTLGMVLNEVAANNLVVIDSLSDLVSAMGEEIEWSDISSLVQGLQKAAHQWGCLLLLHINPETLSTVRHGQLVDASHGTMEFAWESGGSTRARTLVVQQFRGVLSQIEDEDIVQFETELGDAGFDISDVRKIRLEHHHHHH”, for which the protein production result was “failed”.

For “VGFAPELYCGLENCYDVLEVNREEFDKQKLAKAYRALARKHHPDRVKNKEEKLLAEERFRVIATAYETLKDDEAKTNYDYYLDHPDQRFYNYYQY”, the protein production result is “not failed”.

On to “MPSLQDLYAAFRRIAPYTHRTPLLTSRLLDGLLGKRLLLKAEHLQKTGSFKARGALSKALALENPKGLLAVSSGNHAQGVAYAAQVLGVKALVVMPEDASPYKKACARAYGAEVVDRGVTAKNREEVARALQEETGYALIHPFDDPLVIAGQGTAGLELLAQAGRMGVFPGAVLAPVGGGGLLAGLATAVKALSPTTLVLGVEPEAADDAKRSLEAGRILRLEAPPRTRADGVRTLSLGERTFPILRERVDGILTVSEEALLEAERLLFTRTKQVVEPTGALPLAAVLEHGARLPQTLALLLSGGNRDFSP”, for which the protein production entry is recorded as “not failed”.

Regarding “MSLTVVLIVDDHHLIRAGAKNLLEGAFSGMRVEGAETVSDALAFLEADNTVDLILLDVNLPDAEAIDGLVRLKRFDPSNAVALISGETDHELIRAALEAGADGFIPKSADPQVLIHAVSLILEGEIFLPRSYLQGGRMAEVATPLDEGHHHHHH”, the protein production result is reported as “not failed”.

Take “MAYDIERYLDIRGAGDPTYGPTGELAFTLGTTGTAQVWALGAPGAWPTQLTFHDERVQWASFSPTREELAYGMDTGGDEFTQLHRVSGDGSEDVQLTAFPDAKHDWGGWSHDGDRIAYTANRRDASRFDVYVQGRDEAGANADCVRVGDTFDLPSVVGWSPSDDRLLVVDTHSNFDQDVAVLDVDTGEITRATAGLDADTRFSWVAWAPDGGGVYVTTDHDADTRYLGLLDPETGAISRVADGGDWPIEAVVTAHDAGRLAYVRNRDGYSELTIADAAGTTLTEQPTPELPDGVIRGLSWGPDGDTLAVVVSAATENPNVFVVDVATGAATQWTNAATAGIPKSTFREPELVRYETFDGREIPALFTRPDGDGPHPVIVDFHGGPEGQRRPSFLSLRQYFVDNGYAVFEPNVRGSSGYGATYMNLDNVRNRMDAVADGKAGVEWLTARTDIDADRVVAYGGSYGGFMVLASLTEYPELWAAGVDIVGIANFVTFLENTGDWRREHRESEYGSLDADREFLESISPTNNADRIRAPLLVLHGANDPRVPVGEAERIVEQASAHVPVEKHVFDDEGHGFSKRANKQAAYRAVVDFLDDHA”: the protein production result was “failed”.

For the sequence “MGTVMDVLKGDNRFSMLVAAIQSAGLTETLNREGVYTVFAPTNEAFRALPPRERSRLLGDAKELANILKYHIGDEILVSGGIGALVRLKSLQGDKLEVSLKNNVVSVNKEPVAEPDIMATNGVVHVITNVLQP”, the protein production result is on record as “not failed”.

Take “MSLHPHAMPDMGPDMNKVPWMGDEQIAMLVYPGMTVMDLVGPHCMFGSLMGAKIYIVAKSLDPVTSDAGLAIVPTATFGTCPRDLTVLFAPGGTDGTLAAASDAETLAFMADRGARAKYITSVCSGSLILGAAGLLKGYKATSHWSCRDALAGFGAIPTEARVVRDRNRITGAGVTAGLDFGLSMVAELRDQTYAECAQLMSEYDPDPPFNAGSMKTAPAHVRTAMIELVAEFTKKADALAGFPKEGHHHHHH”: the protein production entry was “not failed”.

For the sequence “MSLKIKNILLSGGSGKRLWPLSRSLYPKQFLKLFDHKSLFELSFKRNASLVDETLIVCNEKHYFLALEEIKNEIKNKSVGFLLESLSKNTANAIALSALMSDKEDLLIVTPSDHLIKDLQAYENAIKKAIDLAQKGFLVTFGVSIDKPNTEFGYIESPNGLDVKRFIEKPSLDKAIEFQKSGGFYFNSGMFVFQAGVFLDELKKHAPTILKGCERAFESLENAYFFEKKIARLSEKSMQDLEDMSIDIALMQQSHKIKMVELNAKWSDLGNFNALFEEAANEPKENVSLNQTPVFAKESEEGHHHHHH”, the protein production entry is listed as “not failed”.

Consider “MSLDSRKPGHRPVTMRDVAKAAGVSRMTVSRALKKDSPISSETRERILKVVKDMNYVPDQVAGSLTTKRSGFVGLLLPSLNNLHFAQTAQSLTDVLEQGGLQLLLGYTAYSPEREEQLVETMLRRRPEAMVLSYDGHTEQTIRLLQRASIPIVEIWEKPAHPIGHTVGFSNERAAYDMTNALLARGFRKIVFLGEKDDDWTRGAARRAGFKRAMREAGLNPDQEIRLGAPPLSIEDGVAAAELILQEYPDTDCIFCVSDMPAFGLLSRLKSIGVAVPEQVSVVGFGNFEVSRFASPEISTVRVDPIAIGRETGSLILRLLDPKQRSPQTAQHITLPPVLEFRPSLKNEGHHHHHH”, for which the protein production entry is “not failed”.

As to “MLKMKNNGGGCLAYISDCSVYLPVWKLKRDEISKETGMPSMGGERAVAHWDEDSITMAVEAARKFDGAFDAVIFASSSPPFRIKQCASFIASALDLPDSTFTMDITDTMRAATDALITANEFVDSGRFSRVLVVAGDKIPTKPGTLYEQLYGDAAAAVVVEKEGGAKILGYSTSTKPLPGSWMLADDDTVRDYDMRVDARYGYAASVQKAAMPLFAKLGLSPADIDRIVASAPDPKSYQGLLKAVGARPEEFYFDSVGIAGSAHPLLLLATQLEREGRILLGGYGEGADVIAVEIEQAMDSNMGRMLESRKEISYGDYLFNRGFVGVRDAPDRPSLTKFWRDEKSIIRFYGMKCKSCGTVSYPISRCCIECGAKDNYEEVRLGERGKIYTFTIDYLVMPGNYAGDGVHPHFIAVVDLDGGGRVLFELTDTLRDFSGVECDAEVERTFRLLFEKNRFRYYGWKARLPRLEHHHHHH”, the protein production result is “not failed”.

For “MKVYIETMGCAMNSRDSEHLLSELSKLDYKETNDPKTADLILINTCSVREKPERKLFSEIGQFAKIKKPNAKIGVCGCTASHMGADILKKAPSVSFVLGARNVSKISQVIHKEKAVEVAIDYDESAYAFEFFEKKAQIRSLLNISIGCDKKCAYCIVPHTRGKEISIPMDLILKEAEKLANNGTKELMLLGQNVNNYGARFSSEHAKVDFSDLLDKLSEIQGIERIRFTSPHPLHMNDGFLERFAKNPKVCKSIHMPLQSGSSAVLKMMRRGYSKEWFLNRVERLKALVPEVGISTDIIVGFPNESDKDFEDTMEVLEKVRFDTLYSFIYSPRPFTEAGAWKERVPLEVSSSRLERLQNRHKEILEEKAKLEVGKTHVVLVENRREMDNQIVGFEGRSDTGKFIEVTCKEKRNPGELVKVEIISHSKGRLMAATKGN”, the protein production entry is “failed”.

Take “MIKIAIVGFGTVGQGVAELLIRKREEIEKAIGEFKVTAVADSKSSISGDFSLVEALRMKRETGMLRDDAKAIEVVRSADYDVLIEASVTRVDGGEGVNYIREALKRGKHVVTSNKGPLVAEFHGLMSLAERNGVRLMYEATVGGAMPVVKLAKRYLALCEIESVKGIFNGTCNYILSRMEEERLPYEHILKEAQELGYAEADPSYDVEGIDAALKLVIIANTIGVKASYEDVEVTGITQITPEAFQVAAEKGYTIRLIAEVSREKLKVSPRLVPFHHPLAIKGTMNAAMFKTDTAGSIFVAGRGAGKEETASAILSDLYEIYAGPR”: the protein production entry is given as “failed”.

For the sequence “MIRKLNKKDQEILKTLGSIWLNSNIATHNFINEEYWVNNYDNVIESFKTAEIIVYEKNTEIIGFCGLIDNYIAGMFIKKSSRNQ”, the protein production result was “failed”.
